Test results reported in patent US20110033498.

How the values were obtained:
[1] = target: poly-SUMO-2 chains (2-8) (UniProt P61956)
[2] = system: poly-SUMO-3 chains (2-8)
[3] = target: pro-SUMO-1 (UniProt P63165)
Chain of pro-SUMO-1 (P63165 whole entry): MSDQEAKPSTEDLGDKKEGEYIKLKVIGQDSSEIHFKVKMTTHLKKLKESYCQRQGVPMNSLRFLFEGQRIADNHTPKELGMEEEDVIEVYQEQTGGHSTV

Chain of poly-SUMO-2 chains (2-8) (P61956 1-93): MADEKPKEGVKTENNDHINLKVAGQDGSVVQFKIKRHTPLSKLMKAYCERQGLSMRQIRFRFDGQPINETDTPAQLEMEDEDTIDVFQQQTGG

Substance: His6-SENP2CD (catalytic domain of SENP2)
- in vitro hydrolysis of poly-SUMO-2 chains, Coomassie staining [1]: the catalytic domain of SENP2 (SENP2CD), a SUMO-specific protease, could hydrolyze SUMO chains to monomers
- in vitro hydrolysis of poly-SUMO-2 chains, SDS-PAGE and Coomassie staining [1]: SENP2 reduced the chains to monomers
- in vitro hydrolysis of poly-SUMO-3 chains, Coomassie staining [2]: the catalytic domain of SENP2 (SENP2CD), a SUMO-specific protease, could hydrolyze SUMO chains to monomers
- in vitro hydrolysis of poly-SUMO-3 chains, anti-SUMO-3 Western blot [2]: An identical result was obtained when poly-SUMO-3(2-8) chains were tested
- in vitro processing of pro-SUMO-1, Coomassie staining [3]: could hydrolyze SUMO chains to monomers (FIG. 12D, lane 10) and process pro-SUMO-1
